B1: TPR t1 (parent)
chain: GACCAAUCUGCCCUCAGAGCUCGAGAACAUCUUCGGAUGCAGAGGAGGCAGGCUUCGGUGGCGCGAUAGCGCCAACGUCCUCAACCUCCAAUGCAUCCCACCACAUGAUGAUGCCUGAAGAGCCUUGGUUUUUUG

Variants of: B1
Experiment: polymerase ribozyme fitness, log enrichment relative to wild type (log ratio); higher = more active; in vitro selection for triplet polymerase activity
In short: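 Frozen incubation at −7 °C formed the core of a single, triplicate in vitro selection round applied to PCR-built, transcribed mutant libraries of each subunit of a heterodimeric triplet polymerase ribozyme. Extended constructs were gel-excised, captured with streptavidin beads and amplified by RT-PCR, and input and output libraries were Illumina-sequenced with a filter of ≥10 input reads and ≥1 read per output. Fitness is the logarithm of genotype enrichment relative to wild-type enrichment, with inverse-variance-weighted replicate averaging, and the logarithm is base 2.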

First: G60C C94A C102U U106A
Second: C34A C97G U125A
The “polymerase ribozyme fitness (log ratio)” value of the first is lower: -6.72 for the first, -3.42 for the second.

Compared with G60U C85G C102A, C72G U81C C101U is higher in “polymerase ribozyme fitness (log ratio)” value: -2.17 for the first, -0.875 for the second.

C89G G113U and A50U C62U A91C are within 0.2 log units of each other in “polymerase ribozyme fitness (log ratio)” value: -3.93 for the first, -3.88 for the second.

Compared with C53G C72G G117C, U92A A108U U112C G113A A121G is lower in “polymerase ribozyme fitness (log ratio)” value: -4.69 for the first, -6.52 for the second.

Going from U9A C80U C101U A111U U116A to C28U G36C C56U U81C G122U C124U U132C, the “polymerase ribozyme fitness (log ratio)” value rises from -4.4 to -2.46.

First: C12G G58U A90U A105U
Second: G77U A91U U133C
The “polymerase ribozyme fitness (log ratio)” value of the first is lower: -4.19 for the first, -1.24 for the second.

First: C20A C72G U131G
Second: U9G C82G
The “polymerase ribozyme fitness (log ratio)” value of the first is lower: -3.6 for the first, -0.102 for the second.

Going from U55C C82G A91C A105U C123G to C56U G63U, the “polymerase ribozyme fitness (log ratio)” value rises from -6.04 to -4.18.

First: A16U G47U G52U G65U C115U G117C
Second: C3G C73G
The “polymerase ribozyme fitness (log ratio)” value of the first is lower: -6.26 for the first, -3.19 for the second.

Compared with G52A C124U, G39A C104A is lower in “polymerase ribozyme fitness (log ratio)” value: 0.924 for the first, -2.08 for the second.

Compared with U7A G69U C88G G122A, C82G G117C is lower in “polymerase ribozyme fitness (log ratio)” value: -1.88 for the first, -3.58 for the second.

Going from C15U C79U A111U A121U to G63U C85G G113A, the “polymerase ribozyme fitness (log ratio)” value rises from -3.53 to -2.68.

Going from C8A U14G U55A C62U U78A A100C to A24U U30G G63U C102G, the “polymerase ribozyme fitness (log ratio)” value falls from -1.37 to -5.42.

First: C34A A37U A46U A74U G113C
Second: C56U U59G A74G C102A G127U
The “polymerase ribozyme fitness (log ratio)” value of the first is lower: -6.79 for the first, -3.57 for the second.

Compared with C11U G117C A119U, C80G U106G G110A C124G is lower in “polymerase ribozyme fitness (log ratio)” value: -3.48 for the first, -6.57 for the second.

Compared with C62A C79U, C98A C114U C123G U131C is lower in “polymerase ribozyme fitness (log ratio)” value: -0.345 for the first, -5.24 for the second.

First: A5U U81A A90C U92C
Second: G63A A74U
The “polymerase ribozyme fitness (log ratio)” value of the first is higher: -3.49 for the first, -3.72 for the second.

Going from C11U A27G C76G C80A C85A U112G to G36U C104U, the “polymerase ribozyme fitness (log ratio)” value falls from -0.749 to -1.41.

First: G45U G77U G93U G120U
Second: C12U G19A G45U
The “polymerase ribozyme fitness (log ratio)” value of the first is lower: -3.3 for the first, -2.71 for the second.

G17A C53U U54A C64U U92G and C28G G44A A46G A90C are within 0.2 log units of each other in “polymerase ribozyme fitness (log ratio)” value: -4.58 for the first, -4.5 for the second.

First: C72U G110U U125A
Second: G60U A83U
The “polymerase ribozyme fitness (log ratio)” value of the first is lower: -2.31 for the first, -0.0168 for the second.

Compared with C28U G52U, G58C C70U A103U is lower in “polymerase ribozyme fitness (log ratio)” value: -2.88 for the first, -6.42 for the second.

Going from G42A G69U C76A A121U to C64U A118G U129G, the “polymerase ribozyme fitness (log ratio)” value rises from -3.23 to -1.07.

Compared with A27G C49A, C15A U78A is lower in “polymerase ribozyme fitness (log ratio)” value: -2 for the first, -2.6 for the second.

Compared with C8U G44A C56A C72A U81C A111C, G44U A74U C88A U133G is higher in “polymerase ribozyme fitness (log ratio)” value: -3.76 for the first, -2.41 for the second.

Going from C28U A37C G71U to G45U G63A, the “polymerase ribozyme fitness (log ratio)” value rises from -3.01 to -2.32.

Going from C4A C13U C40A G52A C104U to C13A G39C U59G C104U, the “polymerase ribozyme fitness (log ratio)” value rises from -2.23 to -1.47.

Compared with G35C U129G, C62A A118C is higher in “polymerase ribozyme fitness (log ratio)” value: -6.04 for the first, -2.96 for the second.

First: A16G C49A C73U
Second: C56A U96G G113A
The “polymerase ribozyme fitness (log ratio)” value of the first is higher: -0.946 for the first, -1.95 for the second.

Going from G10C C11A C31A G47U G107U G113A to A37U C80G, the “polymerase ribozyme fitness (log ratio)” value falls from -2.42 to -5.42.

Compared with A50U G61C C88U G113C, G71A G110A is higher in “polymerase ribozyme fitness (log ratio)” value: -5.11 for the first, -2.14 for the second.

C56A C79G G93A and U7G G51U G60U A111C are within 0.2 log units of each other in “polymerase ribozyme fitness (log ratio)” value: -2.59 for the first, -2.64 for the second.

First: A6G G117A C124U
Second: G61A C79A
The “polymerase ribozyme fitness (log ratio)” value of the first is higher: -0.162 for the first, -2.09 for the second.

Going from C56U A75U C86U to G113U, the “polymerase ribozyme fitness (log ratio)” value falls from -0.18 to -2.64.

Compared with G10U G45A U106A, C11G G35C G45U G71A U81A U112A U125A is lower in “polymerase ribozyme fitness (log ratio)” value: -0.0856 for the first, -6.05 for the second.

C11A A18U C49A C123G and C3A A84G are within 0.2 log units of each other in “polymerase ribozyme fitness (log ratio)” value: -2.08 for the first, -2.2 for the second.

G39A G44U C82A A95C C115G and U7G C97G are within 0.2 log units of each other in “polymerase ribozyme fitness (log ratio)” value: -3.83 for the first, -3.9 for the second.

First: G63U C97U
Second: C40G C56U A100U C101G
The “polymerase ribozyme fitness (log ratio)” value of the first is higher: -1.62 for the first, -2.81 for the second.

First: C94A G120C
Second: A37C U54A G93C
The “polymerase ribozyme fitness (log ratio)” value of the first is lower: -1.64 for the first, -1.23 for the second.

Compared with G44A U59A G60U C89U A91G C104A C114U, C8U U30C C49U C124G U133G is higher in “polymerase ribozyme fitness (log ratio)” value: -6.21 for the first, -3.25 for the second.

Going from G44U A90G U132C to A5C C12G C49A A83C, the “polymerase ribozyme fitness (log ratio)” value rises from -0.625 to -0.122.

In the case of A2C C72A G110U, the “polymerase ribozyme fitness (log ratio)” value is reported as -4.2.

Reference: the RNAGym collection of RNA variant scans (doi:10.1073/pnas.2313332121)
